These results are taken from publication PMC8800040.

This assay deals with aflibercept (human). The assay is described as follows: SPR.

The substance human VEGF-A165 (ligand) registered a Kd of 0.0147 nM and a kon of 1.16e+07 M⁻¹ s⁻¹.

As a reminder, the Kd is the equilibrium constant for the complex coming apart. Low values mean tighter binding, high ones weaker binding. As usually defined, the kon is a measure of how fast the partners come together. Read a low kon as slow association.
